In patent US20140357577A1, “HIV Membrane Fusion Inhibitors” (priority 2011, published 2014):
Starred links: 1 amine or outer side, 2 acyl side, 3 side chain; linkers in the order of their positions; H or OH if unused. Positions of bridges follow the written chain, without caps; N, C: chain ends. Non-standard residues stand in square brackets, D forms with d. Primed or numbered codes have the meaning given here. *: point of attachment. cholesteryl‑oxycarbonylmethyl = CC(C)CCC[C@@H](C)[C@H]1CC[C@H]2[C@@H]3CC=C4C[C@@H](OC(=O)C*)CC[C@]4(C)[C@H]3CC[C@]12C; B21″ = 2,7-dimethylnaphtyl linker joining two Cys, c1cc2ccc(C[*:2])cc2cc1C[*:1]; tBuAla = CC(C)(C)C[C@H](N)C(=O)O; Suc = O=C(CCC(=O)[*:2])[*:1]; hCys = N[C@@H](CCS)C(=O)O; Pentanoyl = CCCCC(=O)*; B1 = not defined here; B3 = not defined here; Butyryl = CCCC(=O)*

B1: peptide 35 (peptide)
peptide: Suc-ANYLALIEALIRAAQEQQEKNEAALRGSGC(cholesteryl‑oxycarbonylmethyl)-NH2
SMILES: CC[C@H](C)[C@H](NC(=O)[C@H](CC(C)C)NC(=O)[C@H](C)NC(=O)[C@H](CCC(=O)O)NC(=O)[C@@H](NC(=O)[C@H](CC(C)C)NC(=O)[C@H](C)NC(=O)[C@H](CC(C)C)NC(=O)[C@H](Cc1ccc(O)cc1)NC(=O)[C@H](CC(N)=O)NC(=O)[C@H](C)NC(=O)CCC(=O)O)[C@@H](C)CC)C(=O)N[C@@H](CCCNC(=N)N)C(=O)N[C@@H](C)C(=O)N[C@@H](C)C(=O)N[C@@H](CCC(N)=O)C(=O)N[C@@H](CCC(=O)O)C(=O)N[C@@H](CCC(N)=O)C(=O)N[C@@H](CCC(N)=O)C(=O)N[C@@H](CCC(=O)O)C(=O)N[C@@H](CCCCN)C(=O)N[C@@H](CC(N)=O)C(=O)N[C@@H](CCC(=O)O)C(=O)N[C@@H](C)C(=O)N[C@@H](C)C(=O)N[C@@H](CC(C)C)C(=O)N[C@@H](CCCNC(=N)N)C(=O)NCC(=O)N[C@@H](CO)C(=O)NCC(=O)N[C@@H](CSCC(=O)O[C@H]1CC[C@@]2(C)C(=CC[C@H]3[C@@H]4CC[C@H]([C@H](C)CCCC(C)C)[C@@]4(C)CC[C@@H]32)C1)C(N)=O
B2: peptide 32 (peptide)
peptide: Suc-ENYLRLIEELIRKAQEQQEKNEAALRGSGC(cholesteryl‑oxycarbonylmethyl)-NH2
SMILES: CC[C@H](C)[C@H](NC(=O)[C@H](CC(C)C)NC(=O)[C@H](CCC(=O)O)NC(=O)[C@H](CCC(=O)O)NC(=O)[C@@H](NC(=O)[C@H](CC(C)C)NC(=O)[C@H](CCCNC(=N)N)NC(=O)[C@H](CC(C)C)NC(=O)[C@H](Cc1ccc(O)cc1)NC(=O)[C@H](CC(N)=O)NC(=O)[C@H](CCC(=O)O)NC(=O)CCC(=O)O)[C@@H](C)CC)C(=O)N[C@@H](CCCNC(=N)N)C(=O)N[C@@H](CCCCN)C(=O)N[C@@H](C)C(=O)N[C@@H](CCC(N)=O)C(=O)N[C@@H](CCC(=O)O)C(=O)N[C@@H](CCC(N)=O)C(=O)N[C@@H](CCC(N)=O)C(=O)N[C@@H](CCC(=O)O)C(=O)N[C@@H](CCCCN)C(=O)N[C@@H](CC(N)=O)C(=O)N[C@@H](CCC(=O)O)C(=O)N[C@@H](C)C(=O)N[C@@H](C)C(=O)N[C@@H](CC(C)C)C(=O)N[C@@H](CCCNC(=N)N)C(=O)NCC(=O)N[C@@H](CO)C(=O)NCC(=O)N[C@@H](CSCC(=O)O[C@H]1CC[C@@]2(C)C(=CC[C@H]3[C@@H]4CC[C@H]([C@H](C)CCCC(C)C)[C@@]4(C)CC[C@@H]32)C1)C(N)=O
B3: peptide 39 (peptide)
peptide: Pentanoyl-ECYLACIEALIRAAQEQQEKNEAALR-NH2
modifications: linker 2-6 via B21″
SMILES: CCCCC(=O)N[C@@H](CCC(=O)O)C(=O)N[C@H]1CSCc2ccc3ccc(cc3c2)CSC[C@@H](C(=O)N[C@H](C(=O)N[C@@H](CCC(=O)O)C(=O)N[C@@H](C)C(=O)N[C@@H](CC(C)C)C(=O)N[C@H](C(=O)N[C@@H](CCCNC(=N)N)C(=O)N[C@@H](C)C(=O)N[C@@H](C)C(=O)N[C@@H](CCC(N)=O)C(=O)N[C@@H](CCC(=O)O)C(=O)N[C@@H](CCC(N)=O)C(=O)N[C@@H](CCC(N)=O)C(=O)N[C@@H](CCC(=O)O)C(=O)N[C@@H](CCCCN)C(=O)N[C@@H](CC(N)=O)C(=O)N[C@@H](CCC(=O)O)C(=O)N[C@@H](C)C(=O)N[C@@H](C)C(=O)N[C@@H](CC(C)C)C(=O)N[C@@H](CCCNC(=N)N)C(N)=O)[C@@H](C)CC)[C@@H](C)CC)NC(=O)[C@H](C)NC(=O)[C@H](CC(C)C)NC(=O)[C@H](Cc2ccc(O)cc2)NC1=O

The molecules below were run against gp41 of HIV-1 strain HXB2D with mutation V38A (HIV-1 strain HXB2D, UniProt P04578) (assay: cell-based or functional assay). Conditions: not given.
Suc-ECYLACIEALIRAAQEQQEKNEAALR-NH2 (linker 2-6 via B1; reading uncertain) [peptide 33] was tested, and the “fold change in EC50, HIV-HXB2D V38A mutant” value (from here on “fold change in EC50”) was 11 fold. With B1 the “fold change in EC50” value was 4 fold. With Suc-ACYLACIDELIAKAQEQQEKNEAALR-NH2 (linker 2-6 via B1; reading uncertain) [peptide 36] the “fold change in EC50” value was 23 fold. For Suc-[hCys]YLA[hCys]IEALIRAAREQQEKNEALLR-NH2 (linker 1-5 via B1; reading uncertain) [peptide 28], the “fold change in EC50” value was 4 fold. With Suc-ACYLACIEELIRKAQEQQEKNEAAL[dR]-NH2 (linker 2-6 via B1; reading uncertain) [peptide 34] the “fold change in EC50” value was 19 fold. In the case of Suc-CYLACIEELIRKAQEQQEKNEAAL[tBuAla]-NH2 (linker 1-5 via B3; reading uncertain) [peptide 27], the “fold change in EC50” value is reported as 28 fold. In the case of Pentanoyl-ECYLACIEALIRAAQEQQEKNEAALR-NH2 (linker 2-6 via B1; reading uncertain) [peptide 38], the “fold change in EC50” value is reported as 3 fold. Ac-SWETWEREIENYTRQIYRILEESQEQQDRNERDLLE-NH2 [Sifuvirtide] was tested, and the “fold change in EC50” value was 1 fold. For Suc-CYLACIEELIRKAQEQQEKNEAAL[tBuAla]-NH2 (linker 1-5 via B1; reading uncertain) [peptide 24], the “fold change in EC50” value was 26 fold. Ac-ENYTRQIYRILEESQEQQDRNERDLL-NH2 [Sifuvirtide-PBD] was tested, and the “fold change in EC50” value was greater than 3 fold. With Suc-ACYLACIEELIRKAQEQQEKNEAALR-NH2 (linker 2-6 via B1; not fully specified; reading uncertain) [peptide 31] the “fold change in EC50” value was 14 fold. For Suc-ECYLRCIEELIRKAQEQQEKNEAALR-NH2 (linker 2-6 via B1; reading uncertain) [peptide 29], the “fold change in EC50” value was 7 fold. In the case of Suc-CYLACIEALIRAAQEQQEKNEAALR-NH2 (linker 1-5 via B1; reading uncertain) [peptide 26], the “fold change in EC50” value is reported as 19 fold. In the case of B2, the “fold change in EC50” value is reported as 1 fold. With Butyryl-ECYLACIEELIRKAQEQQEKNEAALR-NH2 (linker 2-6 via B1; reading uncertain) [peptide 40] the “fold change in EC50” value was 3 fold. With Ac-ECYLACIEELIRKAQEQQEKNEAALR-NH2 (linker 2-6 via B1; reading uncertain) [peptide 37] the “fold change in EC50” value was 7 fold. For B3, the “fold change in EC50” value was 2 fold. Suc-ACYLACIDELIKKAQEQQEKNEAALR-NH2 (linker 2-6 via B1; reading uncertain) [peptide 30] was tested, and the “fold change in EC50” value was 8 fold.

Each molecule was assayed on HIV wild type virus strain IIIB (assay: Standard Anti-Viral-Experiment (AVE), HIV-1 replication assay in MT4-LTR-EGFP cells, wild type IIIB). Conditions: 3 days, EGFP signal.
Assay type: cell-based
Source text: • Standard Anti-Viral-Experiment “AVE” (wild type HIV strain IIIB+HIV strain HXB2D side directed mutants V38A and Q40H)
The HIV-1 replication assay measures virus replication (HIV wild type virus strain 111B or HXB2D, or a HIV mutant virus strain HXB2D with mutation V38A or Q40H in the gp41 gene) as an induction of enhanced green fluorescent protein (EGFP) expression. The indicator MT4-LTR-EGFP cells contain an EGFP gene under the control of the HIV-1 LTR promoter sequence. Successful HIV-1 infection results in viral Tat protein expression and subsequent induction of EGFP expression. Compounds/peptides inhibiting HIV-1 infection are expected to reduce EGFP expression as compared to the untreated HIV-infected control.
Serial 4-fold dilutions of test compounds/peptides were mixed with HIV-1 (IIIB, HXB2D, or a HXB2D mutant virus (V38A or Q40H)) and MT4-LTR-EGFP cells and incubated at 37° C. After 3 days, the wells were examined for EGFP expression using an argon laser-scanning microscope. The effective compound/peptide concentration inhibiting 50% of the virus-induced EGFP signal (EC50) was determined by linear interpolation of the EGFP signal vs. logarithm of the compound concentration; (T20, C34 and Sifuvirtide were added as reference compounds). For the V38A and Q40H mutant viruses, results were reported as a fold change in EC50, as compared with a drug-susceptible wild type strain HXB2D, which forms the backbone of the mutant virus. • Standard AVE (50% Human Serum)
For “NNYTSLIHSLIEESQNQQEKNEQELL [C34-PBD*, reference compound]”, the EC50 was greater than 49.2 µM.
